Paper PMC10397247
Each block holds one binder with its values, some of them ahead of it.

How the values were obtained:
Assay in all cases: two-hybrid library CCNG1;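 further: natural log of median RNA to DNA barcode read ratio; higher means stronger binding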
P1bH1 = target: T1, P1bH1
T1 chain: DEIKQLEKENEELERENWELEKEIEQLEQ

P2bH1 = target: T2, P2bH1
T2 chain: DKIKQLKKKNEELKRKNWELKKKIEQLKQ

P3bH1 = target: T3, P3bH1
T3 chain: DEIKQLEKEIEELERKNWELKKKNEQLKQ

P4bH1 = target: T4, P4bH1
T4 chain: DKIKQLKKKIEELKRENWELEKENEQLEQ

P5bH1 = target: T5, P5bH1
T5 chain: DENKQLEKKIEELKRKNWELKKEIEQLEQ

P6bH1 = target: T6, P6bH1
T6 chain: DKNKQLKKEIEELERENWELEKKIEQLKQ

P7bH1 = target: T7, P7bH1
T7 chain: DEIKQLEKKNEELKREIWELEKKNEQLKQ

P8bH1 = target: T8, P8bH1
T8 chain: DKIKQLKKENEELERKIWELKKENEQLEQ

P9bH1 = target: T9, P9bH1
T9 chain: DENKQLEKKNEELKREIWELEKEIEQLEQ

4H1406-bN = target: T10, 4H1406-bN
T10 chain: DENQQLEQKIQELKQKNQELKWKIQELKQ

4H2586-bA = target: T11, 4H2586-bA
T11 chain: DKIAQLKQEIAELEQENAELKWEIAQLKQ

4H3592-bN = target: T12, 4H3592-bN
T12 chain: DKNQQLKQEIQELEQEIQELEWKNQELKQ

4H3601-bN = target: T13, 4H3601-bN
T13 chain: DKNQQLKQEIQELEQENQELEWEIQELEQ

4H3907-bN = target: T14, 4H3907-bN
T14 chain: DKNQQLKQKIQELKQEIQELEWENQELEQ

4H4038-bN = target: T15, 4H4038-bN
T15 chain: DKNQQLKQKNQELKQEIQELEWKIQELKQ

4H477-bN = target: T16, 4H477-bN
T16 chain: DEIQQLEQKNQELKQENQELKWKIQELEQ

4H932-bA = target: T17, 4H932-bA
T17 chain: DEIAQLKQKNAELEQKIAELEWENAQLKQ

O14-bS = target: T18, O14-bS
T18 chain: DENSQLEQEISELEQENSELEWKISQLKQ

O16-bS = target: T19, O16-bS
T19 chain: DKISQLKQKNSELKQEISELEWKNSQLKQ

O2-bS = target: T20, O2-bS
T20 chain: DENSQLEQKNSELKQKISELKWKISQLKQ

O3-bS = target: T21, O3-bS
T21 chain: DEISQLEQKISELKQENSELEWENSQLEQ

O4-bS = target: T22, O4-bS
T22 chain: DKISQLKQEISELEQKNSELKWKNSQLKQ

O5-bS = target: T23, O5-bS
T23 chain: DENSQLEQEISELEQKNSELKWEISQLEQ

O6-bS = target: T24, O6-bS
T24 chain: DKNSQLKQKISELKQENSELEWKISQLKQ

O7-bS = target: T25, O7-bS
T25 chain: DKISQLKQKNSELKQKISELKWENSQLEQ

O8-bS = target: T26, O8-bS
T26 chain: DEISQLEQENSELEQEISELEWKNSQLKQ

P8A-bN = target: T27, P8A-bN
T27 chain: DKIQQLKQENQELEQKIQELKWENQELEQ

interaction score (P1bH1): -0.717
interaction score (P2bH1): 1.17
interaction score (P3bH1): -1.08
interaction score (P4bH1): -1.38
interaction score (P5bH1): -1.15
interaction score (P6bH1): -1.2
interaction score (P7bH1): -0.809
interaction score (P8bH1): -0.757
interaction score (P9bH1): -0.87
B1: P1bH1 (peptide)
chain: DEIKQLEKENEELERENWELEKEIEQLEQ

interaction score (4H1406-bN): -0.553
interaction score (4H2586-bA): 0.875
interaction score (4H3592-bN): 0.142
interaction score (4H3601-bN): 1.53
interaction score (4H3907-bN): 0.347
interaction score (4H4038-bN): -1.69
interaction score (4H477-bN): -2.09
interaction score (4H932-bA): -1.96
B2: 4H1406-bN (peptide)
chain: DENQQLEQKIQELKQKNQELKWKIQELKQ

interaction score (O14-bS): -1.18
interaction score (O16-bS): 0.936
interaction score (O2-bS): -1.15
interaction score (O3-bS): -0.0513
interaction score (O4-bS): 0.126
interaction score (O5-bS): -0.394
interaction score (O6-bS): 0.332
interaction score (O7-bS): -0.1
interaction score (O8-bS): -2.39
interaction score (P8A-bN): -0.473
B3: O14-bS (peptide)
chain: DENSQLEQEISELEQENSELEWKISQLKQ
